Article PMC9253678, “Computer-Aided Design of α-L-Rhamnosidase to Increase the Synthesis Efficiency of Icariside I” (Frontiers in Bioengineering and Biotechnology, 2022)
Residue numbers refer to the chain shown, from its start. Numbers in names are those of the source.

Substrate: COc1ccc(-c2oc3c(CC=C(C)C)c(O[C@@H]4O[C@H](CO)[C@@H](O)[C@H](O)[C@H]4O)cc(O)c3c(=O)c2O[C@@H]2O[C@@H](C)[C@H](O)[C@@H](O)[C@H]2O)cc1
Experiment: HPLC of icariside I formation, Michaelis-Menten nonlinear fit
Type: biochemical, Thermotoga petrophila
Text: HPLC of icariside I formation, Michaelis-Menten nonlinear fit on […]

[1] = optimal conditions of the mutant: 85°C, pH 4.6, icariin 0.1–4 mg/ml
[2] = optimal conditions of the enzyme: 80°C, pH 5.0, disodium hydrogen phosphate-citrate buffer, icariin 0.1–4 mg/ml
[3] = optimal conditions of the mutant: 85°C, pH 5.0, icariin 0.1–4 mg/ml
[4] = optimal conditions of the mutant: 80°C, pH 6.0, icariin 0.1–4 mg/ml
[5] = optimal conditions of the mutant: 80°C, pH 5.0, icariin 0.1–4 mg/ml
[6] = optimal conditions of the mutant: 70°C, pH 4.6, icariin 0.1–4 mg/ml
[7] = optimal conditions of the mutant: 80°C, pH 4.6, icariin 0.1–4 mg/ml

B1: TpeRha (Thermotoga petrophila RKU-1; D506A/H570A/K579A) (protein)
chain: MIQACDLRCEYLTSPVLGLDVIPRFSWRLKGNGKKQTRYKIIVSDNFDDIERGIGNVWESEKDSSKNLNIEYEGPKLKAYKGYYWRVKLWDEKENGPWSETAYFEMGPLEDWRGKWITMPSPLSFKDPAHRHELFYAMYFRKEFLLNKEVEKARVYVSGLGVYELHLNGKRVGNNVLDPAPTDYNKVALYSTYDVTQYLTTGKNTIGVILGNGRHIRDYGYSKPKLYLQLLVFYKDGSREFICSDETWKVSHGPLKENGIYFGEVYDARDEISGWDSPGFDDRNWSEVEIVEGPSLKAQLIPVIRVCEVIKPKRLWLSSRGTFIVDFGKNISGWVKLRVNNGKRGEKIIIRYAEVLDPSMDRLDTRNLRLARATDEYILKGQGVEIYEPRFTYHGFRYVEVEDYPGTLTSDNIEAMFVHTDVEKVGDFACSSELLNKIHSCVVNSQLANLMGIPTDCPQRDERMGWLGDAQLTVEEAMYNFDMAAFYTKYLMDIKLSQKEDGSISAVAPPYWKRYPSDPAWGTAYATILWYLYFFYEDRRVLEEHYDSLKRYVEFLRKNSPNHLTKLGQAGDWCPPGDAFPKRTPLILTSTWYYYHDTLILSEIAKILGKKEDEHEYRKLAGEIKEAFNRHFLRKVEDHTGRIVCFYRGIKLSPKDRIPTTQTCNVLPLWNKMVPEECREDVFKVLERLIEVDNDTHFDTGIVGTRYILEVLSENGRKDLALKLLLKEDYPSFGYMIKNGATTLWERWEKLEGTGMNSHNHVMLGSVDTWFYKYLSGIKPVAPGWKKIRIEPYFADQIDFVSAKIKTPNGSLEVSWKKQNKEYEIQIIIPVNTVGIFAVPESFKVSAINSKQVSYPSEFELEPGAYNIVLERVREC
notes: codon-optimized synthetic gene in pET-28a, E. coli BL21(DE3), Ni-NTA purified (His tag of vector); model domains span 1-861
B1 gave a Km [1] of 1.11 ± 0.34 µM, a Vmax [1] of 6.59 µM/min and a kcat [1] of 0.000212 s⁻¹. The kcat/Km [1] was 191 M⁻¹ s⁻¹.

B2: TpeRha (Thermotoga petrophila RKU-1) (protein)
chain: B1 chain with A506D, A570H, A579K
notes: as for B1
With B2 the Km [2] was 4.33 ± 3.47 µM, the Vmax [2] was 0.098 µM/min and the kcat [2] was 4e-06 s⁻¹. For the same protein, the kcat/Km [2] was 0.923 M⁻¹ s⁻¹.

B3: TpeRha (Thermotoga petrophila RKU-1; D506A) (protein)
chain: B1 chain with A570H, A579K
notes: as for B1
B3 gave a Km [3] of 3.12 ± 0.26 µM, a Vmax [3] of 1.91 µM/min and a kcat [3] of 4.64e-05 s⁻¹. The kcat/Km [3] was 14.9 M⁻¹ s⁻¹.

B4: TpeRha (Thermotoga petrophila RKU-1; H570A) (protein)
chain: B1 chain with A506D, A579K
notes: as for B1
With B4 the Km [4] was 0.92 ± 0.08 µM, the Vmax [4] was 1.19 µM/min and the kcat [4] was 3.64e-05 s⁻¹. It also gave a kcat/Km [4] of 39.5 M⁻¹ s⁻¹.

B5: TpeRha (Thermotoga petrophila RKU-1; K579A) (protein)
chain: B1 chain with A506D, A570H
notes: as for B1
For B5, the Km [5] was 1.24 ± 0.09 µM, the Vmax [5] was 1.97 µM/min and the kcat [5] was 4.31e-05 s⁻¹. For the same protein, the kcat/Km [5] was 34.7 M⁻¹ s⁻¹.

B6: TpeRha (Thermotoga petrophila RKU-1; D506A/H570A) (protein)
chain: B1 chain with A579K
notes: as for B1
In the case of B6, the Km [1] is reported as 0.51 ± 0.13 µM, the Vmax [1] is reported as 2.5 µM/min and the kcat [1] is reported as 9.87e-05 s⁻¹. It also gave a kcat/Km [1] of 194 M⁻¹ s⁻¹.

B7: TpeRha (Thermotoga petrophila RKU-1; D506A/K579A) (protein)
chain: B1 chain with A570H
notes: as for B1
In the case of B7, the Km [6] is reported as 1.39 ± 0.45 µM, the Vmax [6] is reported as 1.37 µM/min and the kcat [6] is reported as 5.68e-05 s⁻¹. For the same protein, the kcat/Km [6] was 40.9 M⁻¹ s⁻¹.

B8: TpeRha (Thermotoga petrophila RKU-1; H570A/K579A) (protein)
chain: B1 chain with A506D
notes: as for B1
In the case of B8, the Km [7] is reported as 0.93 ± 0.08 µM, the Vmax [7] is reported as 5.56 µM/min and the kcat [7] is reported as 0.000118 s⁻¹. The kcat/Km [7] was 127 M⁻¹ s⁻¹.
